Assay results reported in US20250215412A1 (NOVOZYMES A S, published 2025).
Changes are numbered by the printed parent chain. Names and notes keep the numbering of the source. Like-named read-outs stand apart in the source and are kept apart here. Values belong to the binder of their own block, whether it stands above or below them.

Columns and labels:
Test in all cases: cell-based or functional assay
[1] = biological target: T1, Chryseobacterium sp-62563 deamidase Q130L (Chryseobacterium sp-62563)
T1 sequence: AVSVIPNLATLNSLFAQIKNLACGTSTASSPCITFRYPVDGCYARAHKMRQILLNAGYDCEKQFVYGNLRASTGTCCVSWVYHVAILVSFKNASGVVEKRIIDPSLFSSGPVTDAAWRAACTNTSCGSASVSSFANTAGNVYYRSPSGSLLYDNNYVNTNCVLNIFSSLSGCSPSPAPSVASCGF

[2] = biological target: T2, Chryseobacterium sp-62563 deamidase C169S (Chryseobacterium sp-62563)
T2 sequence: T1 sequence with L21Q, C60S

[3] = biological target: T3, Chryseobacterium sp-62563 deamidase Q126N (Chryseobacterium sp-62563)
T3 sequence: T1 sequence with Q17N, L21Q

[4] = biological target: T4, Chryseobacterium sp-62563 deamidase Q130E (Chryseobacterium sp-62563)
T4 sequence: T1 sequence with L21E

[5] = biological target: T5, Chryseobacterium sp-62563 deamidase Q160D (Chryseobacterium sp-62563)
T5 sequence: T1 sequence with L21Q, Q51D

[6] = biological target: T6, Chryseobacterium sp-62563 deamidase Q172N (Chryseobacterium sp-62563)
T6 sequence: T1 sequence with L21Q, Q63N

[7] = biological target: T7, Chryseobacterium sp-62563 deamidase Q126D (Chryseobacterium sp-62563)
T7 sequence: T1 sequence with Q17D, L21Q

[8] = biological target: T8, Chryseobacterium sp-62563 deamidase Q130K (Chryseobacterium sp-62563)
T8 sequence: T1 sequence with L21K

[9] = biological target: T9, Chryseobacterium sp-62563 deamidase C169S (Chryseobacterium sp-62563)
T9 chain: T1 sequence with L21Q, C60S

[10] = biological target: T10, Chryseobacterium sp-62563 deamidase V111A (Chryseobacterium sp-62563)
T10 chain: T1 sequence with V2A, L21Q

[11] = biological target: T11, Chryseobacterium sp-62563 deamidase C230S (Chryseobacterium sp-62563)
T11 chain: T1 sequence with L21Q, C121S

Relative activity of maturated deamidase (% initial rate) [1]: > 100
Leakage activity [2]: 1%
Relative activity of maturated deamidase (% initial rate) [2]: > 100
Relative activity of maturated deamidase (% initial rate) [3]: > 100
Relative activity of maturated deamidase (% initial rate) [4]: 44
Relative activity of maturated deamidase (% initial rate) [5]: > 100
Relative activity of maturated deamidase (% initial rate) [6]: 51
Relative activity of maturated deamidase (% initial rate) [7]: 99
Relative activity of maturated deamidase (% initial rate) [8]: 92
B1: Chryseobacterium sp-62563 propeptide F99A (protein)
chain: NQDPNLVAKESNETAMKDFGKTVPVGIEKEDGKFKISFMVTAQPYEIKDSKENAAYISMIKTAVENETPIHVFLKANTNEIAKVDKATDDDIRYFKSVATKEVKEENRK

Leakage activity [9]: 0%
Leakage activity [10]: 0%
Leakage activity [11]: 13%
B2: Chryseobacterium sp-62563 propeptide (first polypeptide, propeptide domain), wildtype (other)
chain: B1 chain with A99F
